The results in this text go back to the DeepSol protein solubility set.

A short description of this data set: soluble on expression in E. coli; label from the status in PepcDB or PDB records.
For “MYSMLKRVITEKDLLRQIRLLEQLLNVPQLTAKRLAAQIQTTERTVFSDLQYIRSQLPADWSIETDSSGIRLRNQGNAQTNELWSLFLPQSISIQLLKELLFTKELVTTSFLSTSGVSYETLKRHIKKMNQALRDFHLTIQLTTMTIQLIGAESNIRIFYHRLLVPFTHNNYFFDDYSIHEEHYFQFLKQVYSSELTVETEEIFGACWFFINTIRNKANCRVSQFSFDSKDVLFQLYQPSLAKLYASEGIYLQGEESFFAFFCFLESWNYDNVYGETLASALHTHYSQLRKSLQQFVTNLSTEEARPDLIQTNLLDNLLLLFIKYTESPTLSEQFQLEYQELMTEQAAEDLALSKSNQELLEILSRYTTIEEPTYFLSLASLLEKQAIYSIQAQTMTAYFLFQGEPAWKAFLQQELAAYLGTRVKLQAIEYVELSQLTLNEADIIISNFPLDHLDLPVFYLSLIPTKNELRRLAELTLHSYF”, the “soluble on expression in E. coli” value is reported as “soluble”.
The result for “MTETTYENLTRRIDRISAEMREISEENGLRILSLLESQTKSIKDELSRLLWIELPELNESHKIEAVSKSTTGMFFAPGIFEMDAMRKAFFKRQAKHFFENEAEQQAYIEHAEKEYLEATVTLKDILFNSKNGTQKANKSCLIEKFEEAMQ” reads “not soluble”; that for “MSLKLIATDLNGTLLHQDQGFNQPLLKETLSQLKQRGIRLVLASGNQYAHLKEVFREIWSTDLAVIAENGASIYLGDELVFDGSLTPQQVRLFLSATAQDEFLQNAYLILVGAQGSYTRVGAPAPLIAAAEKFYDHLQQVMSLETVTDRIKKISVSTAPEQAAALVQHLNQRFTGQLRAHDSGYGVIDVVSLHVGKLPAVQWLAQHWQIPATEIVAFGDGANDVPLLNYAGQSYAMKNAPVDIQAQAKHVTVWDNDRDGVLRTIATLLVADEGHHHHHH”, “soluble”.
The result for “MAYFMTDVTKENRQDECRFSPNKEATEEDLLRIGVECTKVNFDDEHVQEDLDRLIKKYDMNFHDEVHICRATMPNFDEKLDIFFEEHLHDDAELRVIKHGVGFFDVRTKDEAWIRIPVRRGDFVFLPAGIYHRFTTDPSEDVVALRLFRNNPKWTAFNRKADGDEQRVRQQYLNDISA” reads “soluble”.
The result for “MSLGNDNEKSTTKTSPDKIKFLETSELLTLNTTAEEDFASFTAQNQVFEGLYTLDQKDNFVPGVAGGMPEISADQTKYTIKLKKNAKWSDGSQVTADDFVYAWRRAVDPKTAPGYSALFKDSIKNATEINEGKLPVTDLGVVATDPTTLEITLKKPVPYFISLLSFETFFPQKESFVKKQGDKYGTDSAHTLYNGPFVMKDWGGNITNKWTYAKNDQYWDKDNVKVNEIDVQVAKDINAGVNLYNTNEADRVPLSGDFAKQYKDKKDFQTEKDALISYLRMNQKRDGKATPLANNSLRHALNLAVDKKQLTDRILGDGSFPANGLLPKDFVQNPTTGADFRTDSGDHLVYNKEEALKYWKQAQKELGTDKVTIELLGDDQETTKTIFAYLKAQFEDNLPGVTIKVKNMPSKSATQLTSDGNYDLSLAAWMPDFKDPWTYSSLFLSDYFNNHMSYNSPAYDRLVKSTDTTLATKPEERWNAFVASEKVLLDDDAAILPLYQHQTAVLQRTDITGVQKHAFGSPYSYKFIRVEKEGHHHHHH” reads “soluble”; that for “MFRWLFQSEGVTRSFDTPSETQSARDDRKTIGDYADNFLLFDLVMGEVEMAVIRFEIEKEEKEEAERKAERRPDYSWLISGNMNRARKQLSINEKNRIENACERLKPCEWSKTIDTWKIKTQNPSTRDQIIENFVIATHETIQSRKHEPTITEVLKNFATGRSGSLHTVSHGELPRVGSGRNISELSFIELQEMV”, “not soluble”; that for “LKQKVENLFNEKCGEALGLKQAVKVPFALFESFPEDFYVEGLPEGVPFRRPSTFGIPRLEKILRNKAKIKFIIKKPEMFETAIKES”, “soluble”.
Regarding “MTRQHSTQPDPKLDLVLERTIDVPPALVWQAWTQPEHIKHWLTPAPWQTVRCDVDLRPGGRFRFVMRSPEGEEHTHDCCYLEIVEGSRLVWTNALLPGFRPAGGGGDVPAFTAVIRIEPHDQGTRYTATAMHGTQAGCRQHSDMGFHDGWGAALDQLVAHARNMQQASLEHHHHHH”, the “soluble on expression in E. coli” value is reported as “soluble”.
Then “MGKKVVVIGAGPGGIMAAGKAAERGHNVTLFEKNDRIGKKILISGKGRCNITNNTDIEGLIENIPGNGNFLYSAFYTFSNHDLIEFFEQYGLKTKVERGGRVFPVSDDAKDVNNALLKFLNKAKVNLRLNSPVQEIKAKNNTVTGVVLKDGTEVPCDAVVLATGGASYPGTGSTGDGYVMAKKLGHTIVDLKPSLVPLLAEEEWVKELQGLSLKNVSITILSKAGKKIYTDFGEMLFTHFGVSGPIILSASRHILDYDYKNVKLVIDLKPALSEEKLDERILRDFEKYSRKQYKNSLDDLLPKKMIPVIVKLSGIEPEKFVNQIKKEERRALVRLLKNLTLNINGSRPIKEAIVTAGGVSTDEINPSTMESKLVKGLYFAGEIIDVDGYTGGFNLTIAFSTGYLAGVSC”, with “soluble”; and “MDTKNLTAVQLMELDSCTRCGECVKWCPTYAASGQKPGLAPRDKILRWRQYMNKSYGLKAKLFGPTEIPQSELEEFKDDVHGCTTCGICATVCESGINTVELWESLRTNLVKKGIGPFGKQGMFPKLEHHHHHH”, with “not soluble”; and “MGSDKIHHHHHHMRVLVTGANGFVGSRLAGQLGRSDHFSLACAVRTTGTCRFGEEYSIGELGPKTDWSAALRGQDVVVHLAARAHVMDDEAPDPLVEYRRVNVDGTLNLARQAIDAGVRRFVFVSSIKVNGEQTDLGQPFTSDQITAPADAYGISKLEAERGLLALGKESGMEVVIIRPPLVYGPGVKGNFATLIKLVEKGFPLPLGAISNKRTLVSLDNLVDLIQVCIDHPAAANEVFLAGDNSDLSTSELLREIGKAVGKPARLIPVPQGFLMVAARLLGKTDVARRLFGSLQVDISKARHLLGWEPPVSVEEGLRRCFELESRS”, with “not soluble”.
“MKWAYKEENNFEKRRAEGDKIRRKYPDRIPVIVEKAPKSKLHDLDKKKYLVPSDLTVGQFYFLIRKRIQLRPEDALFFFVNNVIPQTMTTMGQLYQDHHEEDLFLYIAYSDESVYGGEVEKKE”: the “soluble on expression in E. coli” value was “not soluble”.
With “AIAEGEYRLTRSYAVVDITAQVDDSAILEPFACVMARARIGPRTRVGAHSVVGVGVSVGADCCIYHHVTLLNCDIGDRCVIHSGVAIGQDGFGFEVDQQTGKVRKKPQELSVRIGNEVEIGANTCIDRGSWRDTLIEDAVKIDNLVQIGHNVQVGANTFICGQAGVAGSTKIGRYCRFGGRSGAVDHLEIGDHVDVAANSVLTRNAPGHAVYAGFPAMPMREWRHQQVTLRRLSRAGKRQVDVSADDPEFPK”, the “soluble on expression in E. coli” value is “soluble”.
The result for “GPLGSMPEVRFQQQLEQLNSMGFINREANLQALIATGGDINAAIERLLGSQLS” reads “soluble”.
Then “MKIESAVEISKTATDFHTALDASSVIGSDRVDQLKSILNLTKSDTALLESNITQAKQLKITLDAQLQQRKALVDEYKSKLTVLEGSYMRKSAEVQRLQNELQNAQKAHAMKATTAPNEKNQANCSIS”, with “not soluble”; and “RKQDTQRALHLLEEYRSKLSQTEDRQLRSSIERVISIFQSNLFQALIDIQEFYEVTLLDN”, with “soluble”.
The result for “MSEALETGDPSPPPPIVSENGKTYYYLNSQESQAPNTPSPQEVPPKKMTNLFESGPLVYEDVAADIEAVTERASRRHYENKMVVKNSREMFDNVNILPDGRYYCCLCNRPYKTHATLTAHLRGYHLRNESSCDEPGCNFLSFTDQEKKRHRRTHDKKKKERNSQESMVIHEKIQKAVRRLDYPGEDELRDHLNGSTEVQGTIRTMTKKGKIRYACLKCPHSVFNAYHAARHVEMHNDFPKNCFYCGEIRKGTVDLQVHYMRVHKHEGIRTFKCSVCHLRFTTTILFRDHVECENGCQNPEIRQDIYYGELPEGTIVDDLTQDRLQNFRKRQEIWKTMGQMVEEHRTDVHEEIVGESSVQAGDTTVFDGSRAFIQTPFGLKTALEVKNTSRFCPRSGKRTSDDDLMITNKKRERLEMAPNLHFHQDIIHRLPTSTTTQRQNNAFQNEYLRPPVSYGYDPLIGRYPDFQLMSQSSLPSSSASSSSYDPFATAVYQDSDRNPMQPNDQHICDMNNVGAYETANFGLDNSSDLVVNEATIASNLMVNEVEDEVFEELNKLDFVMPADDGNDNDDDLEEVFNFGNVA” reads “not soluble”; that for “MVRPYGIKVNKRKEREERYDKEEDEVEEQPKFEQKQKARESSKKAKKESTSRAEEDNDEEEVTVEATAAAEDIVGGIPIVLNAPNKEKSGIVFVLEKASLEVAKVGKTYQLLNSDDHANFLKKNNRNPADYRPDITHQALLMILDSPVNKAGRLKAVYVRTEKGVLFEVKPHVRIPRTFKRFAGIMLQLLQKLSITAVNSREKLLRCVKNPIEEHHLPVNSHRIGFSHSSEKLVNMQKHLATVCDDDRDTVFVVGAMAHGKIDCNYIDEFVSVSEYPLSAAYCISRICEALATNWNII”, “soluble”; that for “MSLGSRKKFGATYMTTNNRFYEIINDEIRSVVESNGDILVTRDAALDKNKQMQQIYEFIKLKVKAIFINPVDWKQIKPALIAAKNAGIPVIVVDTPVYDDKLVACTVISDNYDAGVQCAKYLMKSKSKANIMLIEHSKAKSGIDRIKGFVDTIGASKQYKIVAAGDSEGQLDKTMSLVDDLIKKHTNVDAIMALNDPSALGALAALKENGLLGKVMVFGVDGSPEAKTMIHDGFMTATSAQFPNKIGHIAAEKAYDILKGKRLKRDVIVPISLISKENLLKYEISGWKEGHHHHHH”, “soluble”.
Regarding “EPAQVRLLSSDFVLPGKHQRLAGWAREAGVELRGLRLGIGEAPPGEWLDGGNLLILDTPRPTDRAQVEEALGERLQGGTQPWIRVGGGPPGFGNLPAALGGRLVGYYANGGEANLRRLFEAVRRWHAGLTVDALPAPQPLAQAGFYHPDAPAPFAVLADYLAWGASRWASDAPRIAFLIPRGAIADAQTGAIDELLRRSERHGQAPLAVWFDDSDPEALRKSFAGADVQALVNLQHLQNGPARRAEFLALDVPVLQTLGYRDGNEADWLAAASGVAPRTAAAFLGMPETWGMSDPLVISALENGEPKLMAGQAEALLDKLDRLLRLRRLPAADKHLALMFWNHPEGEKNVAASHLNVPASLARLGEALRAAGYRVATSDESALIDTAQRLLGGYYRPQTLDALYRDGLAASLPLDAYLHWFEALPADLREEMRARWGDPRRHWALRDIDGQRRFVFPAARLGNLLLLPQPPRAGRPGEAYHDSAVPPDHLYLAVYQFVREGFGADALIHFGTHGTQEWLPGKDRGLAVGDYPLRALGDLPVFYPYIQDNVGEAIQARRRGRAVTVSHQTPSFAPAGLYDELRDLHQLIHEYQQLDEGAVRERSAEQIRAAVRAAHMNDDLGWSEAAMHEDFPAFLGVLHDHLHRLAGSAMPLGLHTFGVAASPELRLGTVMQQLGEPYYRALGLDPDELFAADFRALREGRAYRTLQRYLRDGGEIAKVADPRLREQLLRARELDRQLADTGELEALLAGLAGRFVAPGPGGDPIRNPQVPSGRNLFAFEADKVPTRAAYEAGAEAFGQLLESYRAEHQGRAPEKLAFSLWSSETMRHLGIVESQALHALGLRPRWDAGGRLLALDIVPAAELGRPRVDVVLQVTSVYRDQFDGFMRLLAEAIERLAALDEPGNPLARNSQALERRLRERGVEAPLAQRLSRLRLFGNAPGDYGTGVTQLTLDSTRWDDDSALAEQFLGRLQYAYGSRDWGVKLDGGNLFAEQLKGVQAAILSRSSTLNGVLSTDHPFEYLGGLSLAVRHLDGASPALYIADLRQRQPRTTAAAQFLASELRGRYLSPQWIAAMQREGYAGSLEMLDLANNLWGWQAADRIMVRADQWQALHDTFVMDRRELGLAEWFETHNPTAQAQIIARMAEAIRKGYWDASEQTRRELAERWRQLAAAGAGEVGAATTREFIERMAGGFGEAAAQAEGAAASGAGETVSGRVLEEVAPPPSGEPQ”, the “soluble on expression in E. coli” value is on record as “not soluble”.
As to “WAIFVEQSDGHYRVRLRSKSHIINEIAKRHNGGGHPLASGANSYSLEENQAIYQ”, the “soluble on expression in E. coli” value is on record as “soluble”.
